# B1: 20 bp dsDNA (dsDNA)
# DNA 1: GCCTTGCCGCCGCCCTTGCC
# DNA 2: GGCAAGGGCGGCGGCAAGGC
# B2: (dGdC)30, 60 nt (ssDNA)
# DNA: GCGCGCGCGCGCGCGCGCGCGCGCGCGCGCGCGCGCGCGCGCGCGCGCGCGCGCGCGCGC
# B3: TipαN^25 (N-terminal-truncated TNF-α-inducing protein Tipα starting from residue Cys25) (domain or fragment)
# chain: CTCPNTSQRNSFLQDVPYWMLQNRSEYITQGVDSSHIVDGKKTEEIEKIATKRATIRVAQNIVHKLKEAYLSKTNRIKQKITNEMFIQMTQPIYDSLMNVDRLGIYINPNNEEVFALVRARGFDKDALSEGLHKMSLDNQAVSILVAKVEEIFKDSVNYGDVKVPIAM
# notes: Tipα (TNF-α-inducing protein), Helicobacter pylori strain 26695, gene 0596, 192 amino acids; residues 25-192 (Δ1–24), amplified from genomic DNA into pET22b(+); The entry is the single chain (protomer); A SeMet form (E. coli B834) was used only for phasing; also called Tipα (Δ1–24); native TipαN^25; source: E. coli BL21 (DE3), purified (Ni-NTA, Hitrap SP cation exchange, Superdex 75)
# Tests used:
# [1] = target: T1, TipαN25 (wild type) (Helicobacter pylori 26695, UniProt O25318 25-192); assay: ITC; pH 5.0; n about 1; ITC: 50 mM citric acid/Na citrate pH 5.0, 150 mM NaCl, 25 °C; SPR: 50 mM Hepes pH 7.0, 150 mM NaCl, 0.005% Tween20, 25 °C; conditions: protein: recombinant; tags: C-terminal LE-6xHis; chain copies: 2
# [2] = target: T1, TipαN25 (wild type); assay: ITC; pH 5.0; n=1.17; ITC: 50 mM citric acid/Na citrate pH 5.0, 150 mM NaCl, 25 °C; SPR: 50 mM Hepes pH 7.0, 150 mM NaCl, 0.005% Tween20, 25 °C; conditions: protein: recombinant; tags: C-terminal LE-6xHis; chain copies: 2; called ssDNA by authors; self-complementary repeat
# [3] = target: T2, TipαN25 H60A (Helicobacter pylori 26695, UniProt O25318 25-192, H60A); assay: ITC; pH 5.0; n=0.5; ITC: 50 mM citric acid/Na citrate pH 5.0, 150 mM NaCl, 25 °C; SPR: 50 mM Hepes pH 7.0, 150 mM NaCl, 0.005% Tween20, 25 °C; conditions: protein: recombinant; tags: C-terminal LE-6xHis; chain copies: 2; called ssDNA by authors; self-complementary repeat
# [4] = target: TipαN25 R77A (Helicobacter pylori 26695, UniProt O25318 25-192, R77A); assay: ITC; pH 5.0; n=0.477; ITC: 50 mM citric acid/Na citrate pH 5.0, 150 mM NaCl, 25 °C; SPR: 50 mM Hepes pH 7.0, 150 mM NaCl, 0.005% Tween20, 25 °C; conditions: protein: recombinant; tags: C-terminal LE-6xHis; chain copies: 2; called ssDNA by authors; self-complementary repeat
# [5] = target: TipαN25 R77A/R81A (Helicobacter pylori 26695, UniProt O25318 25-192, R77A;R81A); assay: ITC; pH 5.0; n=0.491; ITC: 50 mM citric acid/Na citrate pH 5.0, 150 mM NaCl, 25 °C; SPR: 50 mM Hepes pH 7.0, 150 mM NaCl, 0.005% Tween20, 25 °C; conditions: protein: recombinant; tags: C-terminal LE-6xHis; chain copies: 2; called ssDNA by authors; self-complementary repeat
# [6] = target: TipαN25 K104A (Helicobacter pylori 26695, UniProt O25318 25-192, K104A); assay: ITC; pH 5.0; n=0.87; ITC: 50 mM citric acid/Na citrate pH 5.0, 150 mM NaCl, 25 °C; SPR: 50 mM Hepes pH 7.0, 150 mM NaCl, 0.005% Tween20, 25 °C; conditions: protein: recombinant; tags: C-terminal LE-6xHis; chain copies: 2; called ssDNA by authors; self-complementary repeat
# [7] = target: TipαN25 K65A/K66A (Helicobacter pylori 26695, UniProt O25318 25-192, K65A;K66A); assay: ITC; pH 5.0; n=0.921; ITC: 50 mM citric acid/Na citrate pH 5.0, 150 mM NaCl, 25 °C; SPR: 50 mM Hepes pH 7.0, 150 mM NaCl, 0.005% Tween20, 25 °C; conditions: protein: recombinant; tags: C-terminal LE-6xHis; chain copies: 2; called ssDNA by authors; self-complementary repeat
# [8] = target: T1, TipαN25 (wild type); assay: ITC; pH 5.0; n=0.925 dimer per DNA; ITC: 50 mM citric acid/Na citrate pH 5.0, 150 mM NaCl, 25 °C; SPR: 50 mM Hepes pH 7.0, 150 mM NaCl, 0.005% Tween20, 25 °C; conditions: protein: recombinant; tags: C-terminal LE-6xHis; chain copies: 2; called ssDNA by authors; self-complementary repeat
# [9] = target: T1, TipαN25 (wild type); assay: ITC; pH 5.0; n=1.47; ITC: 50 mM citric acid/Na citrate pH 5.0, 150 mM NaCl, 25 °C; SPR: 50 mM Hepes pH 7.0, 150 mM NaCl, 0.005% Tween20, 25 °C; conditions: protein: recombinant; tags: C-terminal LE-6xHis; chain copies: 2; called ssDNA by authors; self-complementary repeat
# [10] = target: T2, TipαN25 H60A; assay: SPR; pH 7.0; ka 2.9 M-1 s-1, kd 1.75E-04 s-1; ITC: 50 mM citric acid/Na citrate pH 5.0, 150 mM NaCl, 25 °C; SPR: 50 mM Hepes pH 7.0, 150 mM NaCl, 0.005% Tween20, 25 °C; conditions: protein: recombinant; tags: C-terminal LE-6xHis; chain copies: 2; label: 5' biotin; called ssDNA by authors; self-complementary repeat
# [11] = target: the molecule itself; assay: SEC; analytical gel filtration, Superdex 75 10/300 GL, no reducing agent, pH 4.0 and pH 7.0, dimeric protein concentration 2 mg/ml (also 0.05 and 0.25 mg/ml, Fig. S1)
binder,measurement,setting,value
B1,Ka,[1],1.02e+06 M⁻¹
"GCGCGCGCGCGCGCGCGCGCGCGCGCGCGCGCGCGCGCGC (ssDNA) [(dGdC)20, 40 nt]",Ka,[2],937000 M⁻¹
"GCGCGCGCGCGCGCGCGCGC (ssDNA) [(dGdC)10, 20 nt]",Ka,[3],28200 M⁻¹
same,Ka,[4],479000 M⁻¹
same,Ka,[5],140000 M⁻¹
same,Ka,[6],631000 M⁻¹
same,Ka,[7],261000 M⁻¹
same,Ka,[8],1.04e+06 M⁻¹
B2,Ka,[9],1.03e+06 M⁻¹
"GCGCGCGCGCGCGCGCGCGC (ssDNA) [5'-biotin (dGdC)10, 20 nt]",Kd,[10],60.3 µM
B3,stoichiometry N,[11],2

# Source: article PMC3409205, “Crystal Structure of TNF-α-Inducing Protein from Helicobacter Pylori in Active Form Reveals the Intrinsic Molecular Flexibility for Unique DNA-Binding” (PLoS ONE, 2012)
